Reference: patent US20230203156A1 (published 2023)
Changes are numbered by the printed parent chain.

How the values were obtained:
human CD47 [1] = target: T1, human CD47 (human, UniProt Q08722 19-323); assay: cell binding (flow cytometry, C6 cells)
[2] = target: T2, human MDR1 (multidrug resistance protein 1) (UniProt P08183 1-1280); assay: FACS binding, 293T cells expressing human MDR1
[3] = target: cynomolgus MDR1 (Macaca fascicularis); assay: FACS binding, 293T-cB1 cells
[4] = target: T2, human MDR1 (multidrug resistance …); assay: FACS binding, 293T-hB1 cells
cynomolgus CD47 = target: T3, cynomolgus CD47 (cynomolgus, UniProt A0A5F8AK49 19-323); assay: FACS binding, C6-cKT14 cells
T3 chain: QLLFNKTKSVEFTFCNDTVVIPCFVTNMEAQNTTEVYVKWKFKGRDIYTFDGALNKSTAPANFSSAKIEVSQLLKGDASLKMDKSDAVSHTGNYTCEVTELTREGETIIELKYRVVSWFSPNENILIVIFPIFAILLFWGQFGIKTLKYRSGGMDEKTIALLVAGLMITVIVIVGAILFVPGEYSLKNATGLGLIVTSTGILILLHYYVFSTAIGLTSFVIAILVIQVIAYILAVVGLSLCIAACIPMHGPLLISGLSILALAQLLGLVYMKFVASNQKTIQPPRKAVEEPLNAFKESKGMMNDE

human CD47 [5] = target: T1, human CD47; assay: FACS binding, C6 cells expressing human CD47

Sequence of cynomolgus MDR1 (Macaca fascicularis) (chain, as listed by the source): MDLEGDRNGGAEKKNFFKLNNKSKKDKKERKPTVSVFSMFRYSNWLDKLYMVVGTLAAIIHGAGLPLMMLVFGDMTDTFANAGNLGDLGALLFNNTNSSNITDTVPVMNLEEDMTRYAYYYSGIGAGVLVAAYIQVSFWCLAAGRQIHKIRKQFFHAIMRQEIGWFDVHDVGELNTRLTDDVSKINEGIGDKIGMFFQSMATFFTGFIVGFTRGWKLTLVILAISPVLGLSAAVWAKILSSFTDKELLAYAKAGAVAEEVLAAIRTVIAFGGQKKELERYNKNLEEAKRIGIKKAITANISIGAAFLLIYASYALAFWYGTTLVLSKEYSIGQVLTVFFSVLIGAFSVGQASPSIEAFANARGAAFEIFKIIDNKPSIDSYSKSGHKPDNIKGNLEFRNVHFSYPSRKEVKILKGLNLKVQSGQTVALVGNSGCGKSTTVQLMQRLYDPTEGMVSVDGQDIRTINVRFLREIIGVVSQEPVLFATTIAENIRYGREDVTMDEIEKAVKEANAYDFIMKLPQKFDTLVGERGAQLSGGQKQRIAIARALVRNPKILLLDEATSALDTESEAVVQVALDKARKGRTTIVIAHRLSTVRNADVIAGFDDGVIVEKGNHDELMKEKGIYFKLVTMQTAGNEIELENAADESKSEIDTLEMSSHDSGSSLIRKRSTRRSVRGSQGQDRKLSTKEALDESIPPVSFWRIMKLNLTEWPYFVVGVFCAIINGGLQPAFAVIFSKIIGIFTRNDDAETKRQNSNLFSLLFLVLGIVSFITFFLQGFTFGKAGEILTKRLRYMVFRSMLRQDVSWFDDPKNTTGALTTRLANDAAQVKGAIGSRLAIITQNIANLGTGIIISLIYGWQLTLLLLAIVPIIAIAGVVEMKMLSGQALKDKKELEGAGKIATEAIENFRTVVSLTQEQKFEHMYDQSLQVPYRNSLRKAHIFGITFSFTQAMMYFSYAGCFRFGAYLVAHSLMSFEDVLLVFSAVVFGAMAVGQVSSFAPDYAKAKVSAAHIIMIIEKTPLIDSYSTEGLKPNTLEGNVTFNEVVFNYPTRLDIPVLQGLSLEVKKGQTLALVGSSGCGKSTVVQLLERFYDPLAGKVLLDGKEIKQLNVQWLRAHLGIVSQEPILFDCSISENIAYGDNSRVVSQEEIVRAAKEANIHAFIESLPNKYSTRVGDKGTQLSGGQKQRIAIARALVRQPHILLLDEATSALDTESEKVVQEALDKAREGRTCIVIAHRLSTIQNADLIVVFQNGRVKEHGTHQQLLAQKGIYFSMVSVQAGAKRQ

B1: KT14.5F9hu scFv-B1.261.hu1 (bispecific antibody)
scFv: not shown
heavy: EVQLQESGPGLVKPSETLSLTCTVSGFSLTSYGVHWVRQPPGKGLEWLVVIWSDGSTTYNSALKSRLTISKDNSKNQVSLKLSSVTAADTAVYYCARHGRWLLQRGGAMDYWGQGTMVTVSSASTKGPSVFPLAPSSKSTSGGTAALGCLVKDYFPEPVTVSWNSGALTSGVHTFPAVLQSSGLYSLSSVVTVPSSSLGTQTYICNVNHKPSNTKVDKRVEPKSCDKTHTCPPCPAPELLGGPSVFLFPPKPKDTLMISRTPEVTCVVVDVSHEDPEVKFNWYVDGVEVHNAKTKPREEQYNSTYRVVSVLTVLHQDWLNGKEYKCKVSNKALPAPIEKTISKAKGQPREPQVCTLPPSREEMTKNQVSLSCAVKGFYPSDIAVEWESNGQPENNYKTTPPVLDSDGSFFLVSKLTVDKSRWQQGNVFSCSVMHEALHNHYTQKSLSLSPGK
light: DVQMTQSPSSLSASVGDRVTITCRASQNVGSYIAWYQQKPGKSPKALIYSASYRSSGVPSRFSGSGAGTDFTLTISSLQPEDFATYFCQQYNSYPLTFGGGTKLEIKRTVAAPSVFIFPPSDEQLKSGTASVVCLLNNFYPREAKVQWKVDNALQSGNSQESVTEQDSKDSTYSLSSTLTLSKADYEKHKVYACEVTHQGLSSPVTKSFNRGEC
EC50 (human CD47 [1]): 2.7 nM

B2: B1.188 (antibody, V domains shown)
VH: EVMLVESGGALVKPGGSLKLSCAASGFTFSNYAMSWVRQTPEKRLEWVATISSGGSYTYYPDSVKGRFTISRDNARNTLYLQMSSLRSEDTAMYYCARGYGNFAWFAYWGQGTLVTVSA
VL: DIQMTQSPLSLPVSLGDQASISCRSSQSIVHSTGNTYLEWYLQKPGQSPKLLIYKVSNRFSGVPDRFSGSGSGTDFTLKISRVEAEDLGVYYCFQGSHVPFTFGSGTKLEIK
EC50 [2]: 14.1 nM

B3: B1.261.huH2(VH3)-huL1 (antibody, V domains shown)
VH: EVQLVESGGGLIQPGGSLRLSCAVSGFSLTSYGVHWVRQPPGKGLEWLVVIWSDGSTTYNSALKSRLTISKDNSKNTVYLQMNSLRAEDTAVYYCARHGRWLLQRGGAMDYWGQGTMVTVSS
VL: DVQMTQSPSSLSASVGDRVTITCRASQNVGSYIAWYQQKPGKSPKALIYSASYRSSGVPSRFSGSGAGTDFTLTISSLQPEDFATYFCQQYNSYPLTFGGGTKLEIK
Kd [3]: 114 nM | Kd [4]: 50 nM

B4: B1.27 (antibody, V domains shown)
VH: EVKLVESGGGLVKPGGSLKLSCAASGFTFSSYTMSWVRQTPEKRLEWVATVSSGGGNTYYPDSVKGRFTISRDNAKNNLYLQMSSPRSEDTALYYCARYGNYGWFTYWGQGTLVTVSS
VL: B2 VL with I2V, Q3V, S7T, S28N, E39D, Y92F, V99I, F101R, S105G
EC50 [2]: 34 nM

B5: 15D3DD/KT14KK/225v1 (antibody)
chain 1: EVKVVESGGVLVRPGGSLKLSCAASGFTFSRYTMSWVRQTPEKRLEWVATISSGGGNTYYPDSVKGRFTVSRDNAMSSLYLQMSSLRSEDTALYYCARYGAGDAWFAYWGQGTLVTVSS
chain 2: QVQLVQSGAEVKKPGASVKVSCKASGYTFTNYNMHWVRQAPGQRLEWMGTIYPGNDDTSYNQKFKDRVTITADTSASTAYMELSSLRSEDTAVYYCARGGYRAMDYWGQGTLVTVSS
chain 3: B2 VL with I2V, Q3V, S7T, S25F, T33N, S61F, G96A, V99F, F101R, S105G
EC50 (cynomolgus CD47): 37 nM

B6: B1.39 (antibody, V domains shown)
VH: B4 VH with K3M, P86L, S118A
VL: B2 VL with I2V, Q3L, S7T, V30L, T33N, G69A, V90I, F101R, S105G
EC50 [2]: 14.2 nM

B7: B1.207 (antibody, V domains shown)
VH: GVQLVESGGALVKPGGSLKLSCAASGFTFSNYAMSWVRQTPEKRLEWVATISSGGSYTYYPDSVKGRFTISRDNAKTTLYLQMSGLRSEDTALYYCAKYSNYGRFASWGQGTLVTVST
VL: B2 VL with I2V, Q3L, S7T, T33S, K50R, S61F, F67I, K79R, F101Y, S105G
EC50 [2]: 4.3 nM

B8: B1.201 (antibody, V domains shown)
VH: B7 VH with G1E, V12M, L20F, S30T, Y57N, P61S, Y99F, Y102F, T118A
VL: DVLMTQTPLSLPVSLGDQASISCRFSQSIVHSSGNTYLEWYLQKPGQSPRLLIYKVSNRFFGVPDRISGSGSGTDFTLRISRVEAEDLGVYYCFQGSHVPYTFGGGTKLEIK
EC50 [2]: 8 nM

B9: B1.178 (antibody, V domains shown)
VH: EAQLVESGGALVKPGGSLKLSCSASGFTFSNYAMSWVRQTPEKRLEWVATISSGGTNTYYPGSVKGRFTIARDNAKNTLYLLMSSLRSEDTALYFCARYSNLAWFASWGQGTLVTVSA
VL: B2 VL with I2V, Q3V, S7T, T33N, L51F, Y54S, V90I, F101Y, S105G
EC50 [2]: 16.6 nM

B10: B1.223 (antibody, V domains shown)
VH: B7 VH with G1E, Q3K, Y99F, T118S
VL: B8 VL with V2I, L3Q, T5I, T7S, F25S, I111L
EC50 [2]: 4.6 nM

B11: KT14.B6H12hu scFv-B1.261.hu1 (bispecific antibody)
scFv: not shown
heavy: B1 heavy
light: B1 light
EC50 (human CD47 [1]): 26 nM

B12: B1.261 (antibody, V domains shown)
VH: QVQLKESGPGLVAPSQSLSITCTVSGFSLTSYGVHWVRQPPGKGLEWLVVIWSDGSTTYNSALKSRLSISKDNSKSQVFLKMNSLQIDDTAMYYCARHGRWLLQRGGAMDYWGQGTSVTVSS
VL: DVVMTQAPKFMSTSVGDRVSVTCRASQNVGSYIAWYQQKLGQSPKALIYSASYRCSGVPDRFTGSGAGTDFTLTIRNVQSEDLAEYFCQQYNSYPLTFGGGTKLEIK
Kd [3]: 371 nM | Kd [4]: 188 nM

B13: B1.30 (antibody, V domains shown)
VH: EVMLVESGGGLVKPGGSLKLSCAASGFTFSSYTMSWVRQTPEKRLEWVATISSGGGNTYYPDSVKGRFTISRDNAKNNLYLQMSSLRSEDTALYYCARYYRYDAWFAYWGQGTLVTVSA
VL: B2 VL with I2V, Q3L, S7T, A85T, F101R, S105G
EC50 [2]: 8.5 nM

B14: 15D3DD/KT14KK/B1.27 (antibody)
chain 1: B5 chain 1
chain 2: B5 chain 2
chain 3: B2 VL with I2V, Q3L, M4L, S7T, S28N, E39D, Y92F, V99I, F101R, S105G
EC50 (cynomolgus CD47): 36 nM

B15: 15D3DD KT14KK B1.89v1 LC (bispecific antibody)
heavy 1: not shown
heavy 2: not shown
VL: B2 VL with I2V, Q3L, S7T, S28T, T33N, N58K, G96A, V99F, F101R, S105G
EC50 (cynomolgus CD47): 21 nM

B16: KT14.5F9hu scFv-B1.28.hu13 (bispecific antibody)
scFv: not shown
heavy: EVQLVESGGGLVKPGGSLRLSCAASGFTFGLYTMSWVRQAPGKGLEWVATISSGGSNTYYPDSVKGRFTISRDNAKNSLYLQMNSLRAEDTAVYYCARYYRYDAWFAYWGQGTLVTVSSASTKGPSVFPLAPSSKSTSGGTAALGCLVKDYFPEPVTVSWNSGALTSGVHTFPAVLQSSGLYSLSSVVTVPSSSLGTQTYICNVNHKPSNTKVDKRVEPKSCDKTHTCPPCPAPELLGGPSVFLFPPKPKDTLMISRTPEVTCVVVDVSHEDPEVKFNWYVDGVEVHNAKTKPREEQYNSTYRVVSVLTVLHQDWLNGKEYKCKVSNKALPAPIEKTISKAKGQPREPQVCTLPPSREEMTKNQVSLSCAVKGFYPSDIAVEWESNGQPENNYKTTPPVLDSDGSFFLVSKLTVDKSRWQQGNVFSCSVMHEALHNHYTQKSLSLSPGK
light: EVVLTQSPATLSLSPGERATLSCRSSQNIVHSTGNTYLDWYQQKPGQSPRLLIYKVSNRFSGVPARFSGSGSGTDFTLTISSLEPEDFAVYYCFQGSHIPRTFGGGTKLEIKRTVAAPSVFIFPPSDEQLKSGTASVVCLLNNFYPREAKVQWKVDNALQSGNSQESVTEQDSKDSTYSLSSTLTLSKADYEKHKVYACEVTHQGLSSPVTKSFNRGEC
EC50 (human CD47 [5]): 1.4 nM

B17: B1.85 (antibody, V domains shown)
VH: B2 VH with M3Q, A33G, M34V, G54S, S63I, K65R, R76K, M93F
VL: B2 VL with S81N, F101Y, S105G
EC50 [2]: 9.2 nM

B18: B1.99 (antibody, V domains shown)
VH: B2 VH with M3Q, K43R, R76K, R87I, M93L, A97T, Q111H
VL: DVVMTQTPLSLPVSLGDQVSISCRSSQSIVHSYGSTYLEWYLQKPGQSPKLLIYKVSNRFSGVPDRFSGSGSGTDFTLKISRVEAEDLGVYFCFQGSHIPYTFGGGTKLELK
EC50 [2]: 88.2 nM

B19: B1.198 (antibody, V domains shown)
VH: B7 VH with G1E, T77N, G85S, S107Y, T118A
VL: B8 VL with L3V, F25S, H31D, S33N, R50K, I67F, R79K
EC50 [2]: 14.8 nM

B20: 15D3DD/KT14KK/VL6.CDR3mod (antibody)
chain 1: B5 chain 1
chain 2: B5 chain 2
chain 3: DVLMTQTPLSLPVSLGDQASISCRSSQSLVHSNGNTYLEWYLQKPGQSPKLLIYKVSNRFSGVPDRFSGSGSGTDFTLKISRVEAEDLGVYYCFQGSHFPRTFGGGTKLEIKRTVAAPSVFIF
EC50 (cynomolgus CD47): 44 nM

B21: KT14.B6H12hu scFv-B1.28.hu13 (bispecific antibody)
scFv: not shown
heavy: B16 heavy
light: B16 light
EC50 (human CD47 [5]): 1.5 nM
